This is an account of results in patent US20210261667A1.

Test [1] deals with PD-L1 expressed on the cell surface (HEK293F transiently transfected; A375/PD-L1 stably transfected cells) (UniProt Q9NZQ7). Nature of the test: flow cytometry blocking assay on A375/PD-L1 cells; blocked ligand hPD-1(ECD)-Fc-Biotin, SA-PE detection, MFI [table, row 1].
The target is the same in test [2]. Nature of the test: flow cytometry blocking assay on A375/PD-L1 cells; blocked ligand hPD-1(ECD)-Fc-Biotin, SA-PE detection [column 0.5 ug/ml].
Test [3] has the same target. Description: flow cytometry blocking assay on A375/PD-L1 cells; blocked ligand hPD-1(ECD)-Fc-Biotin, SA-PE detection [column 0.05 ug/ml].
Test [4] has the same target. Nature of the test: flow cytometry blocking assay on A375/PD-L1 cells; blocked ligand hPD-1(ECD)-Fc-Biotin, SA-PE detection [column 0.005 ug/ml].
The target is the same in test [5]. Description: flow cytometry blocking assay on HEK293F cells transiently transfected with PD-L1; blocked ligand hPD-1 biotin, SA-PE detection.
For test [6] the target is unchanged. Nature of the test: flow cytometry blocking assay on A375/PD-L1 cells; blocked ligand hPD-1(ECD)-Fc-Biotin, SA-PE detection; no concentration printed for this panel, which stands above the 0.5 ug/ml column.

Chain of PD-L1 expressed on the cell surface (HEK293F transiently transfected; A375/PD-L1 stably transfected cells) (Q9NZQ7 19-290 limits assumed): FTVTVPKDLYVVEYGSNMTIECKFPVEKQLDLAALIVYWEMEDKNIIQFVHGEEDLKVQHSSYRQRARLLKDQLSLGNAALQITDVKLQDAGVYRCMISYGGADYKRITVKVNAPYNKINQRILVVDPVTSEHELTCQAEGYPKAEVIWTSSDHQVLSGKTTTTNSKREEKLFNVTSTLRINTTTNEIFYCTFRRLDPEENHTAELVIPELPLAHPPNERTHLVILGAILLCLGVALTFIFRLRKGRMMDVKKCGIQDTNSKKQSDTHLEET

Tecentriq (antibody) gave an IC50 in test [1] of 0.456 µg/mL. This substance also gave a Q2 % (cells still positive for hPD-1(ECD)-Fc-Biotin) at 0.5 ug/ml antibody in test [2] of 11.8%. This substance registered a Q2 % (cells still positive for hPD-1(ECD)-Fc-Biotin) at 0.05 ug/ml antibody in test [3] of 85.3%. The same substance yielded a Q2 % (cells still positive for hPD-1(ECD)-Fc-Biotin) at 0.005 ug/ml antibody in test [4] of 86%.
In test [5], negative control antibody showed a Q2 % (cells still positive for PD-1-biotin with the antibody present) of 86.2%. Also, the Q2 % (cells still positive for hPD-1(ECD)-Fc-Biotin with the antibody present) in test [6] was determined as 85.9%.
